Laboratory results from doi:10.1101/2023.06.23.546255.
pKd: −log10 of the molar value.

What was measured:
[1] = biological target: _(FITC)…, fluorescently labeled high-affinity peptide; test: fluorescence polarisation
[2] = biological target: chicken Tapasin (chTapasin), luminal domain (chicken (Gallus gallus)); test: NMR chemical shift perturbation
[3] = biological target: chicken Tapasin (chTapasin), luminal domain (chicken (Gallus gallus)); test: SPR

| Substance | pKd [1] | lifetime of the complex [2] [ms] | pKd [3] |
| --- | --- | --- | --- |
| open B*37:01/chTapasin complex (empty) (from UniProt P61769 21-119) | 8.26 |  |  |
| open HLA-B*37:01 (G120C)/β2m (H31C), UV-irradiated (empty) (from UniProt P61769 21-119) (complex) |  | > 200 | 5.92 |
